The target of one test is T1, IL-4Rα (CD124) (UniProt P24394 26-232).
T1 construct: interleukin-4 receptor alpha chain (CD124), recombinant protein bought from Sino Biological; No catalogue number is printed; also called IL-4 receptor; source: bought: Sino Biological
T1 sequence (looked up): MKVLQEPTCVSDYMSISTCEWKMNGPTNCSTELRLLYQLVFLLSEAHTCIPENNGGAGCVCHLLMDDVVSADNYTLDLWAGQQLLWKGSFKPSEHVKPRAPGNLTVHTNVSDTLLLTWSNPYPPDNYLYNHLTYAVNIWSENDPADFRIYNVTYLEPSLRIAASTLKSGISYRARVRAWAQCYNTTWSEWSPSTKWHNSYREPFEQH
Description: SPR; IL-4Rα immobilised by amine coupling on a carboxymethyl dextran chip (2000±400 RU); AP1 peptide 3.125 to 50 µM, [AP1-V12]6 125 nM to 1 µM, [V14]6 1 µM flowed for 3 min at 25 µL/min; 25°C; kinetic fits with Scrubber 2. As to conditions: both partners purified. Background: SPR reads the build-up and loss of mass on a sensor chip optically.

For test [1], the target named is T2, IL-4 receptor on H226 and MDA-MB-231 cancer cells (human (endogenous in H226 and …, UniProt P24394 26-825)).
T2 construct: interleukin-4 receptor as expressed on the surface of human cancer cell lines; On cells the alpha chain may stand with other receptor chains; source: endogenous, on H226 and MDA-MB-231 cells
T2 sequence (looked up): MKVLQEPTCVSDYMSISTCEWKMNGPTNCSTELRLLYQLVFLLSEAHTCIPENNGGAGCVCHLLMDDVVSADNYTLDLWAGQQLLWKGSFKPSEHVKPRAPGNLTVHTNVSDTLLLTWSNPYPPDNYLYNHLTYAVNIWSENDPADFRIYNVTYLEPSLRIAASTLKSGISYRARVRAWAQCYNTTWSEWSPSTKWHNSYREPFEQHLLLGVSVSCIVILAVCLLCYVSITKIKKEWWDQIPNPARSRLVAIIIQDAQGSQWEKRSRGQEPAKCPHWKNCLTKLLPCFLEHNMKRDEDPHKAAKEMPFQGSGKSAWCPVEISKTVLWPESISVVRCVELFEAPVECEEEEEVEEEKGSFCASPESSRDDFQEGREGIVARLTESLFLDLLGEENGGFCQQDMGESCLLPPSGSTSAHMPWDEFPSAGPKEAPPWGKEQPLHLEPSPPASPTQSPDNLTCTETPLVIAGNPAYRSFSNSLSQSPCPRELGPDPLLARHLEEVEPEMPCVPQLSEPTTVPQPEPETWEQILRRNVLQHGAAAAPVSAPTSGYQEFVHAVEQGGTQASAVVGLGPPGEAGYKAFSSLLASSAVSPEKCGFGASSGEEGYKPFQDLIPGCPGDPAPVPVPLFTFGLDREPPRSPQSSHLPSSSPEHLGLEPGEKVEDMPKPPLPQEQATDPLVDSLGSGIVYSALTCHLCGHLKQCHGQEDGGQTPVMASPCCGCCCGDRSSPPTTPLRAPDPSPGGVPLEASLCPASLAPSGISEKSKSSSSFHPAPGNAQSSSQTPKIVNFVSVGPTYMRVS
Description: flow cytometry on cells; 10 µM Alexa 488-labelled polymer or peptide, 1 h at 4°C, on H226 and MDA-MB-231 cells (IL-4R highly expressed) after blocking with 2% BSA; H460 cells as IL-4R negative control. Particulars: one partner purified.

B1: [AP1-V12]6 polymer, SGPG[VGRKRLDRNG(VGVPG)12]6WPC (designed binder)
chain: SGPGVGRKRLDRNGVGVPGVGVPGVGVPGVGVPGVGVPGVGVPGVGVPGVGVPGVGVPGVGVPGVGVPGVGVPGVGRKRLDRNGVGVPGVGVPGVGVPGVGVPGVGVPGVGVPGVGVPGVGVPGVGVPGVGVPGVGVPGVGVPGVGRKRLDRNGVGVPGVGVPGVGVPGVGVPGVGVPGVGVPGVGVPGVGVPGVGVPGVGVPGVGVPGVGVPGVGRKRLDRNGVGVPGVGVPGVGVPGVGVPGVGVPGVGVPGVGVPGVGVPGVGVPGVGVPGVGVPGVGVPGVGRKRLDRNGVGVPGVGVPGVGVPGVGVPGVGVPGVGVPGVGVPGVGVPGVGVPGVGVPGVGVPGVGVPGVGRKRLDRNGVGVPGVGVPGVGVPGVGVPGVGVPGVGVPGVGVPGVGVPGVGVPGVGVPGVGVPGVGVPGWPC
notes: The vector's insert begins with an ATG; also called [AP1-V12]6 protein; targeted [AP1-V12]6 polymer; source: E. coli BL21 (DE3), purified (four rounds of inverse transition cycling)
What is called koff is the rate constant with which the complex falls apart. Broadly, the kon is the second-order rate constant of association. Higher therefore signals fast association. On to B1, for which, in the test with IL-4Rα (CD124), the koff was found to be 0.00125 s⁻¹ and the kon was 5810 M⁻¹ s⁻¹.

B2: Alexa 488-labeled [AP1-V12]6 (designed binder)
chain: B1 chain
modifications: Alexa Fluor 488-C5 maleimide on the C-terminal Cys residue
notes: as m1; The labelled form of m1, used on cells (flow cytometry, confocal microscopy); also called Alexa-labeled [AP1-V12]6; targeted [AP1-V12]6 polymer; source: E. coli BL21 (DE3), purified (four rounds of inverse transition cycling), then labelled
For B2, in test [1], the “fold cell attachment, H226 cells over H460 cells” value is 5.9 ± 1.6 fold and the “fold cell attachment, MDA-MB-231 cells over H460 cells” value was determined as 5.6 ± 1.3 fold.

B3: AP1 peptide (peptide)
peptide: CRKRLDRN
notes: peptide found earlier by phage display screening, termed AP1; also called free AP1 peptide
In the test with IL-4Rα (CD124), B3 returned a dissociation rate constant (koff) of 0.17 s⁻¹ and a kon of 35 M⁻¹ s⁻¹.

For the origin of these results see article PMC3858272, “Construction and Application of Elastin Like Polypeptide Containing IL-4 Receptor Targeting Peptide” (PLoS ONE, 2013).
